Measured values reported in patent publication US12460006B2, “Antibodies against integrin alpha 11 beta 1” (Momenta Pharmaceuticals, Inc., priority 2019, dated 2025).
“Also recorded” adds a separate entry of the source.

Assays:
human α11β1 = human α11β1 (Homo sapiens, UniProt Q9UKX5); assay: ELISA binding to recombinant human α11β1; conditions: binding Yes/No
Protocol: 0.25 μg/mL of target antigen (recombinant human or mouse α11β1) was plated in a 96-well plate over night at 4° C. Plates were washed (PBS with 0.1% Tween-20), blocked (PBS with 2% BSA and 0.05% Tween-20) for 1 hour at room temperature and incubated with a range of antibody concentrations for 1 hour at room temperature. Subsequently, plates were washed and incubated with biotinylated anti-rabbit/mouse/human IgG in a 1:1000 dilution buffer and incubated for 1 hour at room temperature. After washing the plates, Streptavidin HRP was added at 1:200 in dilution buffer and incubated for 1 hour at room temperature. Ultra TMB ELISA substrate solution was added and the plates incubated for 5 minutes on a plate shaker. The reaction was stopped by adding stop solution to each well and plates were read at 450 nm.

[1] = system: CHO-K1 cells expressing human α11; assay: Cell adhesion inhibition (xCelligence), type I collagen; format: cell-based; conditions: for Inhibition of CHO-K1 adhesion to collagen: Yes/No; for inhibition of cell adhesion to type I collagen: CHO-K1 hu α11 cells
Protocol: 0.6×10^6 cells/mL were incubated with each antibody at a range of concentrations for 20 minutes at 37° C. E-Plate VIEW 96 PET plate coated with 100 ng/mL type I collagen or PBS overnight at room temperature was blocked in 3% BSA for 1 house at room temperature. After washing the plate with PBS, cell and antibody mixture was added to the wells and the plate was places into an xCelligence machine. Cell adhesion was recorded over 6 hours. The time point of maximum cell adhesion was used for comparison relative to control.
A CHO-K1 hu α11 cell line was used to assess the ability of mAbs to block α11β1-mediated binding to type I collagen. […] In the “Untreated” condition, cells were plated on type I collagen but no antibody was added and in the “Uncoated” condition, cells were seeded onto BSA-coated wells containing no type I collagen. Statistics were performed using one-way ANOVA followed by Dunnett's multiple comparisons test. […] Therefore, it is possible that these mAbs bind on an α11β1 domain that keeps the integrin in a low or intermediate affinity state. […] Nine human mAbs were also tested for their ability to inhibit the binding of human CHO-α11 cells to type I collagen.

[2] = system: Human Pulmonary Fibroblasts; assay: Fibroblast-to-Myofibroblasts Transition (FMT), αSMA expression; format: cell-based; conditions: for Inhibition of FMT: Yes/No; for inhibition of αSMA expression / FMT: TGFβ-induced FMT
Protocol: Human Pulmonary Fibroblasts (ScienCell) were cultured in complete Fibroblast Growth Medium (ScienCell) until 80% confluent. Cells were washed and harvested using Accutase. Cells were seeded onto tissue culture-treated 96 well plates at 20,000 cells/well in complete Fibroblast Growth Medium. After 24 hours, cells were washed and starved in serum reduced medium for an additional 24 hours. After starvation, cells were treated with TGFβ-1 (R&D Systems) with or without anti-α11 antibodies. A polyclonal rabbit anti-human α11 antibody was used as a positive control. Appropriate IgG isotype controls were also included. After 48 hours, cells were harvested, fixed, permeabilized and stained with AlexaFluor488 Labeled Anti-αSMA (α-smooth muscle actin) (Invitrogen). Cells were acquired on a FACS Verse (Benton Dickson) to determine expression levels of αSMA. Data were analyzed by gating on single cells and determining the geometric Mean Fluorescence Intensity (gMFI) in the FITC channel for each sample. gMFI for each sample was normalized to the untreated control and presented as % inhibition.
In addition to the binding abilities described above, it is important for an anti-α11β1 antibody to inhibit the fibroblast-to-myofibroblast transition (FMT). It is now appreciated that myofibroblasts are a heterogeneous cell population, existing in different activation states, with the main function of producing and contracting collagen extracellular matrix (ECM). FMT is a multi-step event that is controlled by a changing mechanical environment in tissues undergoing repair. TGFβ is one of the potent factors that potentiates this process and alpha smooth muscle actin (αSMA) is one of the main markers that becomes overexpressed when fibroblasts are undergoing the transition to becoming myofibroblasts. The presence of αSMA enhances fibroblast contraction and guides myofibroblast activation through an intracellular feedback loop. Because αSMA is the main molecular marker of myofibroblasts, the ability of the novel anti-α11β1 mAbs to inhibit αSMA expression in TGFβ-induced FMT was tested.

Sequence of human α11β1 (Q9UKX5 23-1141 limits assumed): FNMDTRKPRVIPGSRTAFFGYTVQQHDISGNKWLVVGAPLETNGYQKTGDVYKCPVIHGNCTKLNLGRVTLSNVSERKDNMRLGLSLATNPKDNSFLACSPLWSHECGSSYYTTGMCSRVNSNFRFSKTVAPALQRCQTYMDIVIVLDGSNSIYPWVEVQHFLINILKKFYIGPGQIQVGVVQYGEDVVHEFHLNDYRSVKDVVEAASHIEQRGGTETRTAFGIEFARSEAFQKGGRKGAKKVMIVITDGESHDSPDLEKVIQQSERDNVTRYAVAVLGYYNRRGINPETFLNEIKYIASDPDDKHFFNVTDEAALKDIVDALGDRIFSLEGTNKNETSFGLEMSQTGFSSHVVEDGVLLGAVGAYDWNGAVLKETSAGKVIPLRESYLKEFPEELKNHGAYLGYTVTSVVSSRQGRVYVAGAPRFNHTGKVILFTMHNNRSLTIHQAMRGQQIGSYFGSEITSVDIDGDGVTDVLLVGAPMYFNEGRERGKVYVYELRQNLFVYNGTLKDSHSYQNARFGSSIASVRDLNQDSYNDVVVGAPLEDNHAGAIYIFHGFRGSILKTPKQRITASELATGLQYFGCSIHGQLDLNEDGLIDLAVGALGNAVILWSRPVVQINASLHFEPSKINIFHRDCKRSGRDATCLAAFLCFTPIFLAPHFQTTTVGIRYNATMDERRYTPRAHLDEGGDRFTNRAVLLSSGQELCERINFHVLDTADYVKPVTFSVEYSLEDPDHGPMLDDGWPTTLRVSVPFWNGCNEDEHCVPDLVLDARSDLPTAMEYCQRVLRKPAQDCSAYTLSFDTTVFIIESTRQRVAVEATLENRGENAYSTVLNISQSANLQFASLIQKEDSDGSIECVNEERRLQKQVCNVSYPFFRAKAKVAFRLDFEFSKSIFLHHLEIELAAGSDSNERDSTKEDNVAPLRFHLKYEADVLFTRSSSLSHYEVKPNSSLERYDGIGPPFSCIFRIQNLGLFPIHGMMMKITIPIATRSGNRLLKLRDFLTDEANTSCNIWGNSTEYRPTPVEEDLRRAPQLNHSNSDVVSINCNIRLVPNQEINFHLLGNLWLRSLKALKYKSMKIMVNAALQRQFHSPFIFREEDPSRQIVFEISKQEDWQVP
Sequence of human α11β1 (P05556 21-728 partner limits assumed): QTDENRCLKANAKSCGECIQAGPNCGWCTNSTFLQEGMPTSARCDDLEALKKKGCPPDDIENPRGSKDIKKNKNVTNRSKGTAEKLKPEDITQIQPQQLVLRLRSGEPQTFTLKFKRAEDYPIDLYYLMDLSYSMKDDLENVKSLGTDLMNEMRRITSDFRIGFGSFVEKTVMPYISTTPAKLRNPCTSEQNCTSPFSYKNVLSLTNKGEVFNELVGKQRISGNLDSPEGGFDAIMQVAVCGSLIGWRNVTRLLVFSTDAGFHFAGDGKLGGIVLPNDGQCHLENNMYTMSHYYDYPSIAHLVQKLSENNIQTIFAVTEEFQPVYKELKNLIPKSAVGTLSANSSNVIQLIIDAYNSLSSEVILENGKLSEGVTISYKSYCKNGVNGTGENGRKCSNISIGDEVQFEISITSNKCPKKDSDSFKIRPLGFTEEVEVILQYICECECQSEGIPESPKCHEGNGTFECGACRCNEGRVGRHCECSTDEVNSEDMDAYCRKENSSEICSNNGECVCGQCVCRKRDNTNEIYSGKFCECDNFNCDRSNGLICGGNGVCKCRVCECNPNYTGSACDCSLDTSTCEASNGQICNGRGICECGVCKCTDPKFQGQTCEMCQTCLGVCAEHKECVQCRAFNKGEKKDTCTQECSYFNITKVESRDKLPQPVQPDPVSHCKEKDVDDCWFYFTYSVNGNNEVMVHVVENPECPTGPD

Row | Molecule | Human α11β1 ELISA (human α11β1) | Inhibition of CHO-K1 adhesion to collagen [1] | Inhibition of FMT [2] | inhibition of cell adhesion to type I collagen [1] | inhibition of αSMA expression / FMT [2]
1 | 6-M8: mouse anti-α11β1 mAb; VH SEQ ID NO: 129, VL SEQ ID NO: 130 (antibody, V domains shown) VH: QVQLQQPGAELVMPGASVKLSCKASGYTFTNYWMHWVKQRPGQGLEWIGEIDPSDSYTNYNQKFKGKATLTVDKSSSTAYMQLSSLTSEDSAVYYCTRQGSTYAWGQGTSVTVSS VL: DIVMTQAAFSNPVTLGTSASISCRSSKSLLHSNGITYLYWYLQKPGQSPQLLIYQMSNLASGVPDRFSSSGSGTDFTLRISRVEAEDVGVYYCAQNLELPPTFGGGTKLEIK | Yes | No | No |  | 
2 | 10-F23: mouse anti-α11β1 mAb; VH SEQ ID NO: 125, VL SEQ ID NO: 126 (antibody, V domains shown) VH: QVTLKESGPGILQPSQTLSLTCSFSGFSLSTFAMGVGWIRQPSGKGLEWLAHIWWDDDKYYNPALKSRLTISKDTSKNHVFLKIANVDTADTATYYCARMPLTFYFDYWGQGTTLTVSS VL: DVLLTQTPLSLPVSLGDQASISCRSSQSIVHSNGHTYLEWYLQKPGQSPKLLIYKVSNRFSGVPDRFSGSGSGTDFTLKISRVEAEDLGVYYCFQGSHVPFTFGGGTKLEIK | Yes | Yes | No |  | 
3 | 6-A12: mouse anti-α11β1 mAb; VH SEQ ID NO: 127, VL SEQ ID NO: 128 (antibody, V domains shown) VH: QVTLKESGPGILQPSQTLSLTCSFSGFSLRTFAMGVGWIRQPSGKGLEWLAHIWWDDDKYYNPALKSRLTISKDTSKNQVFLKIANVDTADTATYYCARMPLTFYFDYWGQGTTLTVSS VL: DVLMTQTPLSLPVSLGDQASISCRSSQSIVHSNGNTYLEWYLQKPGQSPKLLIYKVSTRFSGVPDRFSGSGSGTDFTLKISRVEAEDLGVYYCFQGSHVPFTFGGGTKLEIK | Yes | Yes | No |  | 
4 | 8-P20: mouse anti-α11β1 mAb; VH SEQ ID NO: 105, VL SEQ ID NO: 106 (antibody, V domains shown) VH: KVMLVESGGALVKPGGSLKLSCVASGFTFSNYAMSWVRQTPEKRLEWVATISSGGYYTYYPDSVKGRFTISRDNARNTLFLQMSSLRSEDTAMFYCAREDDYGRYSYTMDYWGQGTSVTVSS VL: DVVMTQTPLSLPVSLGDQVSISCRCSQSLVHSNGNTYLHWYLQKPGQSPQLLIYKISNRFSGVPDRFSGSGSGTDFTLKISRVEAEDLGVYFCSQSTHVPYTFGGGTELEIK | Yes | No | No | did not block cell adhesion | 
5 | 8-J17: mouse anti-α11β1 mAb; VH SEQ ID NO: 113, VL SEQ ID NO: 114 (antibody, V domains shown) VH: QVQLQQSGAELAKPGASVKMSCKASGYTFTNYWMHWVKQRPGQGLEWIGYINPNNGYTEYNQRFKDKATLTADRSSTTAYMQLSSLTSEDSAVYYCARSDIITTDYWGQGTTLTVSS VL: DVVMTQTPLSLPVSLGDQASISCRSSQSLVYSNGNTYLHWYLQKPGQSPKLLIYKVSNRFSGVPDRFSGSGSGTDFTLKISRVEAEDLGVYFCSQSTHVPWTFGGGTKLEIK | Yes | No | Yes | did not block cell adhesion; also recorded: had effect on ligand binding | only inhibited FMT
6 | 40G10H11: rat anti-α11β1 mAb; VH SEQ ID NO: 157, VL SEQ ID NO: 158 (antibody, V domains shown) VH: MDIRLSLGFLVLFIKGDQCAVQLVESGGGLVQPGRSLKLSCAASRITFTDYYMAWVRQAPTKGLEWVATISSDGGDTFYRDSVKGRFTISRDNAKSTLYLQMVSLRSEDTATYYCSTDRGAQFGYWGQGTLVTVSS VL: MAPVQLLGLLLIWLPAMRCDIQMTQSPSFLSASVGDRVSINCKASQNVHENLNWYQQKLGEAPKRLIYNTNNLQTGIPSRFSGSGSGADYTLTISSLQPEDFATYFCLQHNAFPYTFGPGTKLELK | Yes | Yes | Yes | strongly inhibited cell adhesion; also recorded: inhibited cell adhesion | significantly inhibited αSMA expression
7 | 8H8E9: rat anti-α11β1 mAb; VH SEQ ID NO: 149, VL SEQ ID NO: 150 (antibody, V domains shown) VH: MAVLVLLLCLVTFPSCALSQVQLKESGPGLVQPSQTLSLTCTVSGFSLTSNSVSWVRQAPGKGLEWMGAIWSGGSTDYNSALKSRLSISRDTSKSQVFLKMNSLQTEDTAIYFCTRSHWEPFDYWGQGVMVTVSS VL: MESQTQALISLLLWVYGTCGDIVMTQSPFSLAVSEGEMVTINCKSSQGLLSSGNQKNYLAWYQQRPGQSPKLLIYYASTRQSGVPDRFIGGGSGTDFTLTISDVQAEDLADYYCLQHYSYPPTFGSGTKLEIK | Yes | Yes | Yes |  | 
8 | 6E5C11: rat anti-α11β1 mAb; VH SEQ ID NO: 151, VL SEQ ID NO: 152 (antibody, V domains shown) VH: MAVLVLLLCLVTFPSCALSQVQLRESGPGLVQPSQTLSLTCTVSGFSLTSNSVTWVRQPPGKGLEWMGAIWSDGSTDYNSTLKSRLSISRDTSKSQVFLKMSSLQTEDTAIYFCTRSHWEPFDYWGQGVMVTVSS VL: MESQTQALISLLLWVYGTCGDIVMTQSPLSLAVSEGETVTMNCKSSQSLFSSGNQKNYLAWYQQKPGQSPKLLIYYASTRQSGVPDRFIGSGSGTDFTLTISDVQTEDLADYYCLQHYNYPPTFGSGTKLEIK | Yes | No | Yes |  | 
9 | 6-B21: mouse anti-α11β1 mAb; VH SEQ ID NO: 123, VL SEQ ID NO: 124 (antibody, V domains shown) VH: EVQLQQSGPELVKPGASVKISCKASGYTFTDYYMNWVKQSHGKSLEWIGDINPHNGGTSFIQKFKGKATLTVDKSSSTAYMELRSLTSEDSAVYYCAPLGRKEGFAYWGQGTLVTVSA VL: DTVLTQSPASLVVSLGQRATISCRASKSVSTSGYSYMHWYQQKPGQPPKLLIYLASNLESGVPARFSGSGSGTAFTLNIHPVEEEDAATYYCQHSRELPYTFGGGTKLEIK | Yes | No | No |  | 
10 | 6-O12: mouse anti-α11β1 mAb; VH SEQ ID NO: 117, VL SEQ ID NO: 118 (antibody, V domains shown) VH: EVKLEESGGGLVQPGGSMKLSCAASGFTFSDAWMDWVRQSPEAGLEWVAEIRNKAHNPATYYAESVKGRFTISRDDSKSSVYLQMNSLRAEDTGIYYCTLVAPDAMDYWGQGTSVTVSS VL: DIVMSLSPSSLAVSVGEKVTMSCKSSQSLLYSRNQKNYLAWYQQKPGQSPKLLIYWASTRASGVPDRFTGSGSGTDFTLTISSVKAEDLAVYYCQQYYSYPYTFGGGTKLEIK | Yes | No | No |  | 
11 | 3-G5: mouse anti-α11β1 mAb; VH SEQ ID NO: 135, VL SEQ ID NO: 136 (antibody, V domains shown) VH: QVQLQQSGAELARPGASVKLSCKASGYTFTSYGISWVKQRTGQGLEWIGEIFPRSSNTYYNEKFKGKATLTADKSSSTVYMEFRSLTSEDSAVYFCAREGGLAWFAYWGQGTLVTVSA VL: DVVMTQTPLTLSVTIGQPASISCKSSQSLLYTNGNTYLNWLLQRPGQSPKRLIYLVSKLDSGIPDRFSGSGSGTDFTLRISRVEAEDLGVYYCLQSTHFPFTFGSGTKLEIK | Yes | No | No |  | 
